# Source: the nanobody polyreactivity screen of Harvey et al. (2022)
# Assay: yeast display, Sf9 membrane polyspecificity reagent, FACS + sequencing; frameworks hold sequencing errors
# Outline: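 Synthetic nanobody libraries on Saccharomyces cerevisiae BJ5465 were galactose-induced for 36–48 hours, stained 1 hour at 4 °C with 10% biotinylated, detergent-solubilized Sf9 membrane reagent and enriched on streptavidin microbeads. FACS then separated cells into low and high (top ~1%) gates by anti-HA (expression) and streptavidin (reagent binding) fluorescence. Genes were colony-PCR amplified, MiSeq 2 × 250 sequenced and CDR-length filtered. A clone's polyreactivity label is that of its gate of origin.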
row,Sequence,polyreactivity (PSR sort gate)
1,QVQLVESGGGLVQAGGSLRLSCAASGIILVAYAMGWYRPAPGKERELVAAITTSGTSTYYADSVKGRFTISRDNAKNTVYVQMNSLTPEDTAVYYCAVRQRYGPARYDYWGQGTQVTVSS,high polyreactivity
2,QVQLVESGGGLVQAGGSLRLSCAASGIILYDYAMGWYRQAPGKERELVAGINRSGGITYYADSVKGRFTISRDNAKNTVYLQMNSLKPEDTAVYYCNAVFRYGATRSYRYDYWGQGTQVTVSS,high polyreactivity
3,QVQLVESGGGLVQAGGSLRLSCAASGIILYGYAMGWSRQAPGKERELVAAITKSGGSTYYADSVKGRFTISRDNAKNTVYLQMNSLKPEDTAVYYCAAKRWGIWYYGYRPDDYWGQGTQVTVSS,low polyreactivity
4,QVQLVESGGGLVQAGGSLRLSCAASGIISGRTGMGWYRQATGKERELVASISDSGSSTYYADSVKGRFTISRDNAKNTVYLQMNSLKPEDTAVYYCATDLLASRYGYWGQGTQVTVSS,low polyreactivity
5,QVQLVESGGGLVQAGGSLRLSCAASGIISIFNVMGWYRQAPGKERELVASITGRGGSTFYADSVKGRFTISRDNAKNTVYLQMNRLKPEDTAVYYCATDTGYTYPVTGLYDYWGQGTQVTVSS,low polyreactivity
6,QVQLVESGGGLVQAGGSLRLSCAASGIISYYYAMGWYRQAPGKERELVAAISSSGNTYYADSVKGRFTISRDNAKNTVYLQMNSLKPEDTAVYYCAAESYGYYAADDDNYLTWYDYWGQGTQVTVSS,high polyreactivity
7,QVQLVESGGGLVQAGGSLRLSCAASGIIVPNAMGWYRPAPGKERELVAAMSRSGGSTNYADSVKGRFTISRDNAKNTVYLQMNSLKPEDTAVYYCATKYNADTRYDYWGQGTQVTVSS,low polyreactivity
8,QVQLVESGGGLVQAGGSLRLSCAASGIIYAYYAMGWYRLAPGKEREWVAGISSSGITNYADSVKGRFTISRDNAKNTVYLQMNSLKPEDTAVYSCATDWYYWRHFYWVRRGVRYYYWGQGTQVTVSS,high polyreactivity
9,QVQLVESGGGLVQAGGSLRLSCAASGIKLYYYAMGWYRQAPGKETEFVAAIAGSGGSTRYADSVKGRFTISRDNAKKTVYLQMNSLKPEDTAVYYFAARSRYGYITFDYWGQGTQVTVSS,high polyreactivity
10,QVQLVESGGGLVQAGGSLRLSCAASGILFGGYVMGWDRQAPGKERELVAAISRGGGITYYADSVKGRFTISRDNAKNTVYLQMNSLKPEDPAVYYCNAGVYAGQTGYDYWGQGTQVTVSS,high polyreactivity
11,QVQLVESGGGLVQAGGSLRLSCAASGILFRFYAMGWYRQAPGKERELVAAISSGGSTYYADSVKGRFTISRDNAKNTVYLQMNSLKPEDTAVYYCNAGRKSTLVGYVRFYYWGQGTQVTVSS,high polyreactivity
12,QVQLVESGGGLVQAGGSLRLSCAASGILRANAIGWYRQAPGKERELVATINGDGATYADSVKGRFTISRDNAKNTVYLQLNSLKPEDTAVYYCAAGGGWVVKYDYWGQGTQVTVSS,low polyreactivity
13,QVQLVESGGGLVQAGGSLRLSCAASGINFDDYAMGWYRQAPGTERELVAAITWNGGRTYYADSVKGRFTISRDNAKNTVYLKMNSLKPEDTEVYYCAARITNPAKYNYWGQGTQVTVSS,high polyreactivity
14,QVQLVESGGGLVQAGGSLRLSCAASGINFRSYAMGWYRQAPGKERELVAAISSTGRTYYADSVKGRFTISRDNAKNTVYLQMISLKPEDTAVYYCNSKRYIWGQGTQVTVSS,high polyreactivity
15,QVQLVESGGGLVQAGGSLRLSCAASGINFTVYAMGWYRQAPGKVRELVATISRRGGNTFYADSVKGRVTISRDNAKKTVYLKMNSLTPEDTAVYYCAARRYVDYRWDYGYWGQGTQVTVSS,high polyreactivity
16,QVQLVESGGGLVQAGGSLRLSCAASGINFYSYAMGWYRQAPAKERELVAAITLTVGTTYYADSVKGRFTISRDIEKNTVSLKMNSVKREDTACYYCAAQYWWWSRFEYESWGQGTQVTVSS,low polyreactivity
17,QVQLVESGGGLVQAGGSLRLSCAASGINIKYNTMGWYRQAPGKERELVAAISSSGGTKYYADSVKGRFTISRDNAKNTVYLQMNSLKPEDTAVYYCAAGANAQRVPNGDYWGQGTQVTVSS,low polyreactivity
18,QVQLVESGGGLVQAGGSLRLSCAASGINYSRYAMGWYRQAPGKERELVAAISSGGSTNYADSVKGRFTISRDNAKNTVYLQMNSLKPEDTAVYYCAAETRLHRQDYDYWGQGTQVTVSS,low polyreactivity
19,QVQLVESGGGLVQAGGSLRLSCAASGISDWYAMGWSRQAPGKERELVASITDGGSTKYADSVKGRFTISRDNAKNTVYLQMNSLKPEDTAVYYCNNTFRVYFSRSWWSRYYYWGQGTQVTVSS,low polyreactivity
20,QVQLVESGGGLVQAGGSLRLSCAASGISDWYAMGWYRQAPGKERELVASITDGGSTKYADSVKGRFTISRDNAKNTVYLQMNSLKPEDTAVYYCNTTFRVYFSRSWWSRYYYWGLGTQVTVSS,low polyreactivity
21,QVQLVESGGGLVQAGGSLRLSCAASGISFSYYAMGWYRQAPGKERELVAAITSSGGSTYYADSVKGRFTISRDNEKNTVYLQMTSLKPEDTAVYYCNAKRAPWGTLYNYWGLGTQVTVSS,high polyreactivity

row,Sequence,polyreactivity (PSR sort gate)
1,QVQLVESGGGLVQAGGSLRLSCAASGISFYRYAMGWYRQAPGKERELVAAITGSGDSTYYADSVKGRFSISRDNAKNTVYLQMNSLKPEDTAVYYCNTDYGRRYDYWGQGTQVTVSS,high polyreactivity
2,QVQLVESGGGLVQAGGSLRLSCAASGITFAEYAMGWYRQAPGKERELVAAINGGGGSTYYADSVKGRFTISRDNAKNTVYLQMNSLKPEDTAVYYCAARYRGWSGGYDYWGQGTQVTVSS,high polyreactivity
3,QVQLVESGGGLVQAGGSLRLSCAASGITFAFYAMGWYRQAPGKERELVAAISWSGTRTYYADSVKGRFTISRDNAKNTVYLQMNSLKPEDTAVYYCAADFQAGDKLYDYWGQGTQVTVSS,low polyreactivity
4,QVQLVESGGGLVQAGGSLRLSCAASGITFAFYAMGWYRQAPGKERELVAAISWSGTRTYYADSVKGRFTISRDNAKNTVYLQMNSLKPEDTAVYYCAADYQAGYKMFDYWGQGTQVTVSS,low polyreactivity
5,QVQLVESGGGLVQAGGSLRLSCAASGITFAPYAMGWYRQAPGKERELVATITWSGGSTYYADSVKGRFTISRDNAKNTVYLQMNSLKPEDTAVYYCAAYNDTVPSAAHIYESWGQGTQVTVSS,low polyreactivity
6,QVQLVESGGGLVQAGGSLRLSCAASGITFARYAMGWYRQAPGKARELVAAISRSGGSTYYADSVKGRFTSSRDNAKNTVYLQMNSLKPEDSAVYYCAAGGRVRRNKFDDWGQGTQVTVAS,high polyreactivity
7,QVQLVESGGGLVQAGGSLRLSCAASGITFARYAMGWYRQAPGKETELVAALSKRGGRTYYADSVKGRFTISRDNAKNTVYLQMNSLKPEDTAVYYCATDYYVSTDYNYWGQGTQVTVSS,high polyreactivity
8,QVQLVESGGGLVQAGGSLRLSCAASGITFAWYAMGWYRQAPGKERELVAAISRSGGSTYYADSVKGRFTISRDNAKNTVYLQMNSLKPEDTAVYYCADRASPRFNYWGQGTQVTVSS,high polyreactivity
9,QVQLVESGGGLVQAGGSLRLSCAASGITFAYYVKGWYRQAPGKERQLVAAITRSGDITSYADSVKGRFTISRDNAKNTVYLQMNSLKPEDTAVYYCNARRGYQSRRYNYWGQGTQVTVSS,high polyreactivity
10,QVQLVESGGGLVQAGGSLRLSCAASGITFDENTMGWYRQGPGKERELVAAITEIGGSTYYADSVKGRFTISRDNAKNTVYLQMHSLKPEDTAVYYCNAARWVGRFVDYEYWGQGTQVTVSS,low polyreactivity
11,QVQLVESGGGLVQAGGSLRLSCAASGITFDGYAMGWDRQAPGKERELVAVISWSAGSTYADSVKGRFTISRDNAKNTVYLQMNSLKPEDTAVYYGNARTTYRSSRYRRYEYWGQGTQVTVSS,high polyreactivity
12,QVQLVESGGGLVQAGGSLRLSCAASGITFDGYAMGWYRQAPGKERELVAAIRSSGGSTYYADSVKGRFTISRDNAKNTVYLQMNSLKPEDTAVYYCATDKVTVWGWKYDSWGQGTQVTVSS,low polyreactivity
13,QVQLVESGGGLVQAGGSLRLSCAASGITFDGYGMGWYRQAPGKERQLVAAITYSGGRTYYADSVKGRFTISRDIEKNTVYLQMNSLKPEDTAVYYCAVVSRRLYEYDYWGQGTQVTVSS,high polyreactivity
14,QVQLVESGGGLVQAGGSLRLSCAASGITFDHYAMGWYRQAPGKEREFVAAIDDIGGDTYYADSVKGRFTISRDNAKNTVYLQMNSLKPEETAVYYCATDYPWIFGHFLMDYWGQGTQVTVSS,low polyreactivity
15,QVQLVESGGGLVQAGGSLRLSCAASGITFDLYAMGWYRQAPGKEREFVATISWTGGTTYYADSVKGRFTISRDNAKNTVYLQMNSLKPEDTAVYYCNKGSDFFWYDYDYWGQGTQVTVSS,low polyreactivity
16,QVQLVESGGGLVQAGGSLRLSCAASGITFDLYDMGSYRQAPGKERELVAAITDADSTYYADSVKGRFTISRDNAKNTVLLQMNSLKPEDTAVYYCAATSYSHTKIRYDYWVQGTQVTVSS,low polyreactivity
17,QVQLVESGGGLVQAGGSLRLSCAASGITFDQYVMGWYRQAPGKERELVAAIDRSDGITYYADSVKGRFTISRDNAKNSVYLQMNSLTPEDTAVYYCAAVTYTPVYGGYYWDGGYWGQGTQVTVSS,low polyreactivity
18,QVQLVESGGGLVQAGGSLRLSCAASGITFDTYAMGWYRQAPGKERELVAAISSSGSTNYADSVKGRFTISRDNAKNTVYLQMNSLKPEDTAVYYCATDYWPGTGGNYDYWGQGTQVTVSS,low polyreactivity
19,QVQLVESGGGLVQAGGSLRLSCAASGITFDVNAMGWYRPAPGKERELVAAITAGGNTYYADSVKGRFTISRDNAKNTVYLQMNSLKPEDTAVYYCAAVSTSLYWAGYDYWGQGTQVTVSS,low polyreactivity
20,QVQLVESGGGLVQAGGSLRLSCAASGITFDWYTLGWYSQAPGKERELVAAISRNGGSTYYADSVKGRFTISRDNAKNTVYLQMNSLKPEDTAVYYCAAPLTYLYYGYDYWGQGTQVTVSS,high polyreactivity
